Test results taken from paper PMC8558838 (The Journal of Experimental Medicine, 2021).

B1: mouse CD160 (30I-154H) with C-terminal …, biotinylated [modified: biotin; biotin] [mouse] / full-length WT mouse HVEM-mCherry, on cells [mouse] (parent complex)
chain 1: IHVTSSASQKGGRLDLTCTLWHKKDEAEGLILFWCKDNPWNCSPETNLEQLRVKRDPETDGITEKSSQLVFTIEQATPSDSGTYQCCARSQKPEIYIHGHFLSVLVTGNHTEIRQRQRSHPDFSH
chain 2: QPSCRQEEFLVGDECCPMCNPGYHVKQVCSEHTGTVCAPCPPQTYTAHANGLSKCLPCGVCDPDMGLLTWQECSSWKDTVCRCIPGYFCENQDGSHCSTCLQHTTCPPGQRVEKRGTHDQDTVCADCLTGTFSLGGTQEECLPWTNCSAFQQEVRRGTNSTDTTCSSQVVYYVVSILLPLVIVGAGIAGFLICTRRHLHTSSVAKELEPFQEQQENTIRFPVTEVGFAETEEETASN
B2: human LIGHT extracellular domain (L83-V240) [human] / WT hHVEM (L39-V202) fused with a PD-L1 transmembrane domain and EGFP, on cells [human] (parent complex)
chain 1: LIQERRSHEVNPAAHLTGANSSLTGSGGPLLWETQLGLAFLRGLSYHDGALVVTKAGYYYIYSKVQLGGVGCPLGLASTITHGLYKRTPRYPEELELLVSQQSPCGRATSSSRVWWDSSFLGGVVHLEAGEKVVVRVLDERLVRLRDGTRSYFGAFMV
chain 2: LPSCKEDEYPVGSECCPKCSPGYRVKEACGELTGTVCEPCPPGTYIAHLNGLSKCLQCQMCDPAMGLRASRNCSRTENAVCGCSPGHFCIVQDGDHCAACRAYATSSPGQRVQKGGTESQDTLCQNCPPGTFSPNGTLEECQHQTKCSWLVTKAGAGTSSSHWV
B3: hCD160-6×His tag protein [human] / WT hHVEM (L39-V202) fused with a PD-L1 transmembrane domain and EGFP, on cells [human] (parent complex)
chain 1: GCINITSSASQEGTRLNLICTVWHKKEEAEGFVVFLCKDRSGDCSPETSLKQLRLKRDPGIDGVGEISSQLMFTISQVTPLHSGTYQCCARSQKSGIRLQGHFFSILFTETGNYTVTGLKQRQHLEFSHNEGTLS
chain 2: B2 chain 2
B4: full-length mouse BTLA-EGFP, on cells [mouse] / full-length WT mouse HVEM-mCherry, on cells [mouse] (parent complex)
chain 1: EKATKRNDEECPVQLTITRNSKQSARTGELFKIQCPVKYCVHRPNVTWCKHNGTICVPLEVSPQLYTSWEENQSVPVFVLHFKPIHLSDNGSYSCSTNFNSQVINSHSVTIHVRERTQNSSEHPLITVSDIPDATNASGPSTMEERPGRTWLLYTLLPLGALLLLLACVCLLCFLKRIQGKEKKPSDLAGRDTNLVDIPASSRTNHQALPSGTGIYDNDPWSSMQDESELTISLQSERNNQGIVYASLNHCVIGRNPRQENNMQEAPTEYASICVRS
chain 2: B1 chain 2

Variants of: B1
Test: flow cytometry, cell–protein method

| Variant | ratio to parent |
| --- | --- |
| chain 2 P17A | 0.1 |
| chain 2 K26D | 0.6 |
| chain 2 K26A | 0.7 |
| chain 2 K77D | 0.6 |
| chain 2 K77A | 1.1 |
| chain 2 V36A | 1 |
| chain 2 V36D | 0.1 |
| chain 2 E8A | 0.1 |
| chain 2 E8R | 0.1 |
| chain 2 A49D | 0.7 |
| chain 2 S98D | 1.1 |
| chain 2 S98A | 1.1 |
| chain 2 H96D | 1 |
| chain 2 G34A | 0.1 |
| chain 2 G34R | 0.1 |
| chain 2 G34D | 0.1 |
| chain 2 L52R | 0.8 |
| chain 2 L52D | 0.9 |
| chain 2 L52A | 0.9 |
| chain 2 R5A | 0.2 |

| Variant | ratio to parent |
| --- | --- |
| chain 2 R5D | 0.1 |
| chain 2 A38D | 0.1 |
| chain 2 A38W | 1.1 |
| chain 2 T99D | 1.3 |
| chain 2 T99A | 1.1 |
| chain 2 H48R | 1 |
| chain 2 H48D | 1.1 |
| chain 2 S30D | 0.8 |
| chain 2 S30H | 0.6 |
| chain 2 S30A | 0.9 |
| chain 2 L56A | 1 |
| chain 2 L56D | 0.9 |
| chain 2 M18D | 0.1 |
| chain 2 M18A | 0.6 |
| chain 2 T35D | 0.1 |
| chain 2 T35A | 0.1 |
| chain 2 G51D | 0.3 |
| chain 2 N50D | 0.1 |
| chain 2 N50A | 0.1 |

Variants of: B1
Test: flow cytometry, cell–protein method; read off a plot

| Variant | ratio to parent |
| --- | --- |
| chain 2 H48A, chain 2 L52A | ~1.4 |
| chain 2 G34R, chain 2 V36A | ~0.01 |
| chain 2 H48R, chain 2 L52A | ~1 |
| chain 2 G34D, chain 2 V36D | ~0.01 |
| chain 2 G34D, chain 2 V36R | ~0.01 |
| chain 2 G34D, chain 2 V36A | ~0.01 |
| chain 2 H48D, chain 2 L52R | ~0.66 |
| chain 2 H48D, chain 2 L52D | ~0.76 |
| chain 2 G34A, chain 2 V36D | ~0.01 |

Variants of: B2
Test: flow cytometry on cells stained with soluble protein

| Variant | ratio to parent |
| --- | --- |
| chain 2 N50A | 0.7 |
| chain 2 G51A | 1.2 |
| chain 2 L56A | 1.8 |
| chain 2 E77A | 1 |
| chain 2 L49A | 1.2 |
| chain 2 L52A | 0.9 |

Variants of: B3
Test: as above

| Variant | ratio to parent |
| --- | --- |
| chain 2 L52A | 1.1 |
| chain 2 G51A | 0.9 |
| chain 2 L49A | 1.3 |
| chain 2 N50A | 0.8 |
| chain 2 E77A | 1.1 |
| chain 2 L56A | 1.1 |

Variants of: B4
Test: flow cytometry, cell–cell method

| Variant | ratio to parent |
| --- | --- |
| chain 2 T35A | 0.5 |
| chain 2 T35D | 0.1 |
| chain 2 G51D | 1 |
| chain 2 A38D | 1.2 |
| chain 2 A38W | 1.2 |
| chain 2 H96D | 0.9 |

Variants of: B4
Test: flow cytometry, cell–cell method; read off a plot

| Variant | ratio to parent |
| --- | --- |
| chain 2 G34A, chain 2 V36D | ~0.06 |
| chain 2 H48A, chain 2 L52A | ~0.88 |
